Several values for one entry are separate records, joined by “and”; a condition that tells them apart may be missing. Equal values may be shown once.
Target: the molecule itself
Assay: SEC

B1: PE11 (Rv1169c) esterase of Mycobacterium tuberculosis, recombinant His-tagged (enzyme)
chain: MSFVTTRPDSIGETAANLHEIGVTMSAHDDGVTPLITNVESPAHDLVSIVTSMLFSMHGELYKAIARQAHVIHESFVQTLQTSKTSYWLTELANRAGTST
stoichiometry N: 4 and 2

Reference: publication doi:10.1101/2024.06.18.599654 (bioRxiv, 2024)
